The values that follow come from patent US6624139B1, “Hypersensitive response elicitor-induced stress resistance” (Eden Bioscience Corporation, priority 1998, dated 2003).

One data set deals with pepper. Description: Pepper tolerance to SENCOR herbicide damage. Type of data set: in vivo. The text has this: Pepper seedlings were drenched with hypersensitive response elicitor at 20 ppm seven days before transplanting, sprayed seven days after the transplanting, and then, sprayed every fourteen days. Standard chemicals, Brave, Maneb, Kocide, and Admire, were used for the rest of the treatment. […] The pepper field was applied with the herbicide SENCOR which is not labeled for pepper. This herbicide is known to cause severe foliar damage to pepper in chemically-treated plants but not with hypersensitive response elicitor-treated plants.
The difference between the adverse effect of the herbicide on the hypersensitive response elicitor and non-hypersensitive response elicitor treated plants is dramatic. […] In contrast, 53 out of the 60 chemically-treated pepper plants had severe damage, 40-57% of the leaves were damaged, and 20 plants were dead. The ability of hypersensitive response elicitors to help crops withstand the phytotoxic effects of a herbicide is very important benefit to in agricultural industry.

The test system of another data set is cotton. The data set is described as follows: Insecticide stress tolerance of cotton (defoliation, formed cotton balls). Type of data set: in vivo. The text has this:
(§1) Aphids (Aphids gossypii) infect cotton during the entire growth season. The damage of aphid infection ranges from honeydew deposit that contaminates the lint and reduces crop value to defoliation that reduces or destroys crops. To protect plants from aphid infection, cotton is usually sprayed with insecticides, for example Asana XL when the infection pressure is not very high, and Admire when the infestation pressure is high. The effect of a hypersensitive response elicitor on aphids in cotton was studied by a trial involving a randomized complete block design. This involved treatment with Erwinia amylovora hypersensitive response elicitor (i.e. HP-100™) at 20, 60, and 80 ppm and a chemical insecticide, Asana XL, at 8 oz./ac. Each treatment involved foliar application beginning at cotyledon to three true leaves and thereafter at 14 day intervals using a backpack sprayer. Aphid counts and overall growth of the cotton were made immediately prior to spray application at 14, 28, 35, and 42 days after the first treatment (“DAT 1”). Twenty-five randomly selected leaves per plot were collected at the first three sampling dates and the leaves per plot at the final sampling date.
2. Hypersensitive response elicitor-treated cotton was more resistant to the damage caused by Pravado (Admire) and Asana. […]

For another data set, the system named is cucumber. Description: Cucumber field trial under drought (survival, flowering, yield). Details: Yield/Replicate: unit not given beside the values. Type of data set: in vivo. The following applies: for Yield summed over the three replicates: control 39.3; for Yield/Replicate / kg/plant: replicates I-III; for % of the Yield Increase: versus control; for kg/plant: cucumber fruit yield. The protocol: A cucumber field trial was set up to test the effect of Erwinia amylovora hypersensitive response elicitor on disease control, tolerance to drought stress, and yield. Three different rates were tested, there at 15, 30, and 60 μg/ml. In addition to hypersensitive response elicitor treatment, there was an untreated control. Each treatment contained three replicate plots. When the first true leaf emerges, hypersensitive response elicitor was sprayed with a back bag sprayer. The second spray was applied ten days after the first spray. The third application was right after the recovery of cucumber seedlings after the transplanting to the field. Individual treatment was randomly assigned in the field.
When the first true leaf emerged (Day 0), a first application was sprayed. Usually cucumber seedlings are transplanted when seedlings show two true leaves. It has been known that the recovery rate after the transplanting is closely related to the size of the seedlings. Because of the drought, the seedlings were maintained in the nursery for an extra ten days and the second spray was applied on Day 10. Two days after the second spray, the plants were transplanted into fields and covered with plastic sheets. The plants had 4-5 true leaves.

For the next data set, the system named is Aphids (Aphids gossypii). The data set is described as follows: Aphid count per leaf on cotton, field trial. Type of data set: in vivo.
Description: as §1

For data set [1] the following is noted: cited from earlier work.

Residue numbers refer to the chain shown, from its start. Several values for one entry are separate records, joined by “and”; a condition that tells them apart may be missing. Equal entries are not always repeated.

B1: HP-1000: Erwinia amylovora hypersensitive response elicitor protein applied to plants by foliar spray or drench (protein, UniProt Q01099 1-403, looked up)
Harpin HrpN: MSLNTSGLGASTMQISIGGAGGNNGLLGTSRQNAGLGGNSALGLGGGNQNDTVNQLAGLLTGMMMMMSMMGGGGLMGGGLGGGLGNGLGGSGGLGEGLSNALNDMLGGSLNTLGSKGGNNTTSTTNSPLDQALGINSTSQNDDSTSGTDSTSDSSDPMQQLLKMFSEIMQSLFGDGQDGTQGSSSGGKQPTEGEQNAYKKGVTDALSGLMGNGLSQLLGNGGLGGGQGGNAGTGLDGSSLGGKGLQNLSGPVDYQQLGNAVGTGIGMKAGIQALNDIGTHSDSSTRSFVNKGDRAMAKEIGQFMDQYPEVFGKPQYQKGPGQEVKTDDKSWAKALSKPDDDGMTPASMEQFNKAKGMIKSAMAGDTGNGNLQARGAGGSSLGIDAMMAGDAINNMALGKLGAA
With B1, the “Number of plants with Damage Rating 1” value in the data set on pepper (1 = No damage, 60 plants, SENCOR herbicide, elicitor 20 ppm) came to 1. Also, the “Number of plants with Damage Rating 2” value with pepper (2 = 0-20% leaves damaged, 60 plants, SENCOR herbicide) was 38. Besides, in the data set on pepper (3 = 20-40% leaves damaged, 60 plants, SENCOR herbicide), the “Number of plants with Damage Rating 3” value is 17. Moreover, the “Number of plants with Damage Rating 4” value in the data set on pepper (4 = 40-50% leaves damaged, 60 plants, SENCOR herbicide) was 3. For the same molecule, in the data set on pepper (6 = More than 75% leaves damaged or entire plant dead, 60 plants, SENCOR herbicide), the “Number of plants with Damage Rating 6” value came to 0. Besides, in the data set with pepper (of 60 plants, SENCOR), the “Plants with only minor damage by the herbicide (damaged leaves less than 20%)” value is on record as “Thirty-nine of the 60”. Also, in the data set on pepper (rating 5 not defined in footnote, 60 plants, SENCOR herbicide), the “Number of plants with Damage Rating 5” value is given as 1. The “Damage Index %” value in the data set on pepper (sum of rating times number of plants, divided by total plants times 6) worked out at 41%. The “Defoliation of cotton after second chemical spraying” value with cotton (after Pravado (Admire) applied to all plots, elicitor especially at 80 ppm) is given as “no defoliation”. Moreover, in the data set with cotton (formed cotton balls on ten plants in each of four replicates, after insecticide stress, elicitor at 80 ppm), the “No. balls/10 plants/replicate” value came to 35. The “Yield summed over the three replicates” value with cucumber (15 μg/ml) was 103.8; in the data set with cucumber (30 μg/ml), 133.2. Further, the Yield/Replicate is 37.5 and 30.0 and 36.3 with cucumber (15 μg/ml, listed as HP 15); 46.2 and 42.9 and 44.1 with cucumber (30 μg/ml, listed as HP 30). In addition, the “% of the Yield Increase” value with cucumber (15 μg/ml) is reported as 241%; in the data set with cucumber (30 μg/ml) it was 339%. Also, in the data set with cucumber (30 ppm), the “Final yield relative to control plants” value was “three times greater yield”. In addition, the kg/plant with cucumber (15 μg/ml, listed as HP 15) is 1.25 kg/plant and 1.00 kg/plant and 1.21 kg/plant; in the data set with cucumber (30 μg/ml, listed as HP 30), 1.54 kg/plant and 1.43 kg/plant and 1.47 kg/plant. Moreover, in the data set with cucumber (drought), the “Start of flowering earlier than untreated control” value came to 14 days. Also, in the data set on cucumber (drought, untreated 57%), the “Cucumber seedlings survived after transplanting” value is recorded as “More than 80%”. For the same molecule, the “Cucumber fruits per plant in the first harvest” value with cucumber (drought, virtually no fruit from untreated control) was “more than 0.4 kilograms”. Moreover, the “Number of aphids per leaf” value came to 0.2 a per leaf in the data set on Aphids (Aphids gossypii) (20 μg/ml a.i., 1 spray, 14 DAT 1); 7.8 b per leaf with Aphids (Aphids gossypii) (20 μg/ml a.i., 2 sprays, 28 DAT 1); 22.9 b per leaf in the data set with Aphids (Aphids gossypii) (20 μg/ml a.i., 3 sprays, 35 DAT 1); 322.1 a per leaf in the data set on Aphids (Aphids gossypii) (20 μg/ml a.i., 4 sprays, 42 DAT 1); 0.1 a per leaf in the data set on Aphids (Aphids gossypii) (60 μg/ml a.i., 1 spray, 14 DAT 1); 4.9 b per leaf in the data set with Aphids (Aphids gossypii) (60 μg/ml a.i., 2 sprays, 28 DAT 1). Besides, the “Number of aphids per leaf” value in the data set with Aphids (Aphids gossypii) (60 μg/ml a.i., 3 sprays, 35 DAT 1) was found to be 34.6 b per leaf; in the data set on Aphids (Aphids gossypii) (60 μg/ml a.i., 4 sprays, 42 DAT 1), 168.3 a per leaf; in the data set on Aphids (Aphids gossypii) (80 μg/ml a.i., 1 spray, 14 DAT 1), 0.0 a per leaf; with Aphids (Aphids gossypii) (80 μg/ml a.i., 2 sprays, 28 DAT 1), 2.7 b per leaf; in the data set on Aphids (Aphids gossypii) (80 μg/ml a.i., 3 sprays, 35 DAT 1), 25.8 b per leaf; with Aphids (Aphids gossypii) (80 μg/ml a.i., 4 sprays, 42 DAT 1) it was 510.2 a per leaf.

B2: hypersensitive response elicitor polypeptide or protein derived from Erwinia amylovora: hypersensitive response elicitor protein from Erwinia amylovora, amino acid sequence SEQ. ID. No. 3 (protein, listed as Erwinia amylovora)
chain: B1 Harpin HrpN with S281R, D282H, S360R, A361P
Regarding B2, in data set [1], the “Time heat stable at 100° C.” value was “at least 10 minutes”.
